Data reported in patent publication US20240156980A1 (Molecular Partners, published 2024).
Residue numbers refer to the chain shown, from its start. One block for each binder: values may come before it.

What was measured:
human CD3 on T cells [1] = target: T1, human CD3 on T cells (human, UniProt P07766 23-207; P09693 23-182; P04234 22-171); test: cell-based or functional assay
human CD3 on T cells [2] = target: T1, human CD3 on T cells; test: flow cytometry on Jurkat cells, detection with anti-DARPin antibodies
Experimental: (§1) The determination of CD3 binding was performed with human CD3 on Jurkat cells, and binding to hEGFR on cells with HCT116 tumor cells, using Flow Cytometer Attune Nxt. A titration of prodrug DARPin molecules was incubated with 200′000 cells per well (for both Jurkat and HCT116 cells) for 30 min at 4° C. After washing, CD3 binding of DARPin® molecule was detected by 1:1000-diluted anti-DARPin® Antibody-Mix (1 h incubation at 4° C.) with the corresponding secondary antibody anti-rabbit IgG Alexa Fluor 488 (30 min incubation at 4° C.), which was added after washing off excess anti-DARPin Antibodies. Cells were subsequently washed and stained for livedead (aqua, 1:1000, thermofisher) and resuspended in Cytofix fixation buffer (BD Biosciences). Median of mean fluorescence intensities of Alexa Fluor 488 binding on live cells were measured by Flow Cytometry and data was plotted using GraphPad Prism 8.

human CD3 on T cells [3] = target: T1, human CD3 on T cells; test: cell-based or functional assay; remark: listed apart in the source
[4] = target: T2, human EGFR on tumor cells (human, UniProt P00533 25-1210); test: flow cytometry on HCT 116 tumor cells, detection with anti-DARPin antibodies
T2 construct: whole, on cells; also called EGFR on A431 cells
Experimental: as §1

[5] = target: T2, human EGFR on tumor cells; test: cell-based or functional assay
[6] = target: T2, human EGFR on tumor cells; test: cell-based or functional assay; remark: listed apart in the source
[7] = target: T3, CD3-specific binding domain C7v118; test: SPR (ProteOn XPR36), biotinylated Binder captured on NLC neutravidin chip as ligand, CD3-specific binding domain as analyte, PBS-T, 25 C; KD from kon/koff
T3 construct: Used as analyte in SPR; also called hC22_88B02v118
T3 chain: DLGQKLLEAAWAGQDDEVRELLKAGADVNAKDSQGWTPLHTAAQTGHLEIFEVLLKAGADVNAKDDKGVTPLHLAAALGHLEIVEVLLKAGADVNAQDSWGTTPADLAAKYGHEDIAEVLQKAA
Description: (§2) An important feature of a binding moiety of the invention is its affinity towards a drug molecule. Relevant aspects include the off-rate of the binding moiety from the drug molecule and the resulting blocking half-life. Surface plasmon resonance (SPR) assays were used to determine the binding affinity of ankyrin repeat binding domains to the CD3 binding domain of a TCE drug molecule. AN SPR data was generated using a Bio-Rad ProteOn XPR36 instrument with PBS-T (0.005% Tween 20) as running buffer. A new neutravidin sensor chip (NLC) was air-initialized and conditioned according to Bio-Rad manual.

[8] = target: T4, CD3-specific binding domain C7v119; test: as above
T4 construct: Used as analyte in SPR; also called hC22_88B02v119
T4 chain: T3 chain with D32N, Q34R
Description: as §2

[9] = target: T5, CD3-specific binding domain C7v122; test: as above
T5 construct: Used as analyte in SPR; also called hC22_88B02v122
T5 chain: T3 chain with D32N, Q34R, D65N, G68R, Q97R, E114Q
Description: as §2

[10] = target: T6, CD3-specific binding domain C7v14; test: as above
T6 construct: Used as analyte in SPR; also called hC22_88B02v14
T6 chain: T3 chain with E20I, K23A, D32N, Q34R, D65N, G68R, Q97R, E114G
Description: as §2

[11] = target: T7, CD3-specific binding domain C7v127; test: as above
T7 construct: Used as analyte in SPR; also called hC22_88B02v127
T7 chain: T3 chain with D15L, E20I, D32N, Q34R, D65T, D66N, G68R, Q97R, S99T, E114R
Description: as §2

[12] = target: T6, CD3-specific binding domain C7v14; test: SPR (affinity cited in Example 9; CD3-binding domain taken as C7v14); high affinity Binder #1
Description: as §2

[13] = target: T3, CD3-specific binding domain C7v118; test: SPR (ProteOn XPR36), biotinylated Binder captured on NLC neutravidin chip as ligand, CD3-specific binding domain as analyte, PBS-T, 25 C; KD by equilibrium fitting
Description: as §2

[14] = target: T4, CD3-specific binding domain C7v119; test: as above
Description: as §2

[15] = target: T5, CD3-specific binding domain C7v122; test: as above
Description: as §2

[16] = target: T6, CD3-specific binding domain C7v14; test: as above
Description: as §2

[17] = target: T7, CD3-specific binding domain C7v127; test: SPR (ProteOn XPR36), biotinylated Binder on NLC chip, CD3-specific binding domain as analyte, 25 C
Description: as §2

[18] = target: T6, CD3-specific binding domain C7v14; test: SPR (affinity cited in Example 9; CD3-binding domain taken as C7v14); lower affinity Binder #3
Description: as §2

[19] = target: T7, CD3-specific binding domain C7v127; test: SPR (ProteOn XPR36), biotinylated Binder captured on NLC neutravidin chip as ligand, CD3-specific binding domain as analyte, PBS-T, 25 C; KD by equilibrium fitting
Description: as §2

T1 sequence (P07766 23-207, chain 1 of 3): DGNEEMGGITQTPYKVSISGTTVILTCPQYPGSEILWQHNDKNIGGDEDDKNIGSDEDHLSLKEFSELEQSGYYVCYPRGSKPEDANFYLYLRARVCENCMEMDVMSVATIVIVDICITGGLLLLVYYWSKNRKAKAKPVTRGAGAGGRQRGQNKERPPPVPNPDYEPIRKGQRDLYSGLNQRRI
T1 sequence (P09693 23-182, chain 2 of 3): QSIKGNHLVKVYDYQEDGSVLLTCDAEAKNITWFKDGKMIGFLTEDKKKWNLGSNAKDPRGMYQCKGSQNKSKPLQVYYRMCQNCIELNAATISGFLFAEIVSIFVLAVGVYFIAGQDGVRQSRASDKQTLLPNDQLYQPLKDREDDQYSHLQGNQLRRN
T1 sequence (P04234 22-171, chain 3 of 3): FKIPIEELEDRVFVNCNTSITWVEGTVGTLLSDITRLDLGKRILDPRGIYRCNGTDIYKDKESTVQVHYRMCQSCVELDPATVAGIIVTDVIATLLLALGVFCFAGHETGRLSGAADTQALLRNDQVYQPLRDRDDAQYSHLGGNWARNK

T-cell activation EC50, HCT 116 tumor cells and pan T-cells (human CD3 on T cells [1]): 0.0108 nM
EC50 (human CD3 on T cells [2]): > 10 nM
EC50 [4]: 0.427 nM
B1: Active TCE EGFR-C7v119-6His (designed binder)
chain: MGSDLGYKLLRAAFHGQDDEVRILLAAGADVNAKDLIGQTPLHNAAWVGHLEIVEVLLKAGADVNAKDYYGNTPLHLAAHDGHLEIVEVLLKAGADVNAQDTWGETPADLATNAGHEDIAEVLQKAAGSPTPTPTTPTPTPTTPTPTPTGSDLGQKLLEAAWAGQDDEVRELLKAGADVNAKNSRGWTPLHTAAQTGHLEIFEVLLKAGADVNAKDDKGVTPLHLAAALGHLEIVEVLLKAGADVNAQDSWGTTPADLAAKYGHEDIAEVLQKAAGSHHHHHH
notes: Bispecific ankyrin repeat protein; also called active TCE (C7v119 comprising construct); anti-EGFR x anti-CD3
tumor cell killing EC50, HCT 116 tumor cells and pan T-cells (human CD3 on T cells [1]): 0.0185 nM
tumor cell killing EC50 (LDH release), HCT 116 tumor cells and pan T-cells (human CD3 on T cells [3]): 0.0074 nM

T-cell activation EC50, HCT 116 tumor cells and pan T-cells (human CD3 on T cells [1]): 0.0068 nM
EC50 (human CD3 on T cells [2]): 7.9 nM
EC50 [4]: 0.518 nM
B2: Active TCE EGFR-C7v122-6His (designed binder)
chain: B1 chain with D216N, G219R, Q248R, E265Q
notes: Bispecific ankyrin repeat protein; also called active TCE (C7v122 comprising construct); anti-EGFR x anti-CD3
tumor cell killing EC50, HCT 116 tumor cells and pan T-cells (human CD3 on T cells [1]): 0.0072 nM
tumor cell killing EC50 (LDH release), HCT 116 tumor cells and pan T-cells (human CD3 on T cells [3]): 0.0022 nM

T-cell activation EC50 (CD25 on CD8+ T cells), EGFR+ HCT 116 tumor cells and pan T-cells [5]: 0.0532 nM
T-cell activation EC50 (CD25 on CD8+ T cells), EGFR+++ A431 tumor cells and pan T-cells [5]: 0.679 nM
masking window (EC50 difference between active TCE and CD3-PDD NCL), T-cell activation with A431 cells [6]: ~200 fold
B3: CD3-PDD NCL EGFR-C7v14-[NCL2]-06E05v05-6His (designed binder)
chain: MGSDLGYKLLRAAFHGQDDEVRILLAAGADVNAKDLIGQTPLHNAAWVGHLEIVEVLLKAGADVNAKDYYGNTPLHLAAHDGHLEIVEVLLKAGADVNAQDTWGETPADLATNAGHEDIAEVLQKAAGSPTPTPTTPTPTPTTPTPTPTGSDLGQKLLEAAWAGQDDEVRILLAAGADVNAKNSRGWTPLHTAAQTGHLEIFEVLLKAGADVNAKNDKRVTPLHLAAALGHLEIVEVLLKAGADVNARDSWGTTPADLAAKYGHGDIAEVLQKAASGPTPTPTTPTPTPTTPTPTPTGSDLGKKLLQAARAGQLDEVRELLKAGADVNAKDAKGLTPLHLAAYHGHLEIVEVLLKAGADVNAKDVYGWTPLHIAAASGHLEIVEVLLKAGADVNAKDALGWTPLHLAASHGHLEIVEVLLKAGADVNAQDKSGKTPADLAARAGHQDIAEVLQKAAGSHHHHHH

Kd [7]: 0.44 nM
Kd [8]: 0.36 nM
Kd [9]: 0.21 nM
Kd [10]: 0.33 nM
Kd [11]: 0.02 nM
Kd [12]: < 1 nM
B4: Binder #1 (designed binder)
chain: MRGSHHHHHHGSDLGKKLLQAARAGQLDEVRELLKAGADVNAKDAKGLTPLHLAAYHGHLEIVEVLLKAGADVNAKDVYGWTPLHIAAASGHLEIVEVLLKAGADVNAKDWLGWTPLHLAASHGHLEIVEVLLKAGADVNAQDKSGKTPADLAARAGHQDIAEVLQKAA
modifications: biotinylated for SPR (site not stated)
notes: also called 06E05

Kd [13]: 41.4 nM
Kd [14]: 37.5 nM
Kd [15]: 27.2 nM
Kd [16]: 35.3 nM
binding result [17]: binds
B5: Binder #4 (designed binder)
chain: B4 chain with H123A
modifications: biotinylated for SPR (site not stated)
notes: N-terminal His-tag; also called 06E05v07

Kd [7]: 126 nM
Kd [8]: 141 nM
Kd [9]: 92.4 nM
Kd [10]: 114 nM
binding result [17]: binds
B6: Binder #2 (designed binder)
chain: B4 chain with Y79A
modifications: biotinylated for SPR (site not stated)
notes: N-terminal His-tag; also called 06E05v03

Kd [18]: > 100 nM
Kd [13]: 683 nM
Kd [14]: 336 nM
Kd [15]: 149 nM
Kd [16]: 189 nM
Kd [19]: 53.4 nM
B7: Binder #3 (designed binder)
chain: B4 chain with W111A
modifications: biotinylated for SPR (site not stated)
notes: N-terminal His-tag; also called 06E05v05
